In the RNAGym collection of RNA variant scans (doi:10.7554/elife.80360) one finds self-cleavage data, which are given here for 57 variants.

Sequences and labels used below:
B1: Hammerhead Ribozyme (parent)
chain: ACCGGAUGUGCUUUCCGGUCUGAUGAGUCCGUGAGGACGAAACAG

The series covers variants of B1. The series is described as follows: self-cleavage, relative activity (ratio to wild type); higher = more cleavage; co-transcriptional.
As to ACCGGAAGUGCUUUCCGGUCUGUUGAGUCCGUGAGGACGAAACAG [U7A A23U], the self-cleavage is 0.322. ACCGGAUGUGCUUUACGAUCUGAUGAGUCCGUGAGGACGAAACAG [C15A G18A]: the self-cleavage was found to be 0.323. With ACCGUAUGUGCUUUCCGGUCCGAUGAGUCCGUGAGGACGAAACAG [G5U U21C], the self-cleavage was 0.668.

Take AUCGGAUGUGCUUUCCGGUCUGAUGAGUCCGUGAGGACGAAACGG [C2U A44G]: the self-cleavage is 1.55. For ACAGGAUGUGCUUUCCGGUCUGAUGAGUCCGUGAGGAGGAAACAG [C3A C38G], the self-cleavage worked out at 0.329. In the case of ACCGGAUGUGCUUUCCGGUCUGAUGAGUCCGUGAGGACGGAAAAG [A40G C43A] it was 0.339; in that of ACCGGCUGUGCUUUCCGGACUGAUGAGUCCGUGAGGACGAAACAG [A6C U19A], 0.265; in that of ACCGGAUGUGCUUUCCGGUCUGCUGAGCCCGUGAGGACGAAACAG [A23C U28C], 0.352. On to ACCGGAUGUGCUUUCCGGUCUGAUUAGUCCGUGAGGACGAAACGG [G25U A44G], for which the self-cleavage was found to be 0.669. ACGGGAUGUGCUUUCCGGUCUGAUGAGUCCGUGAGGACGAACCAG [C3G A42C]: the self-cleavage is 0.31. With ACCGUAUGUGCUUACCGGUCUGAUGAGUCCGUGAGGACGAAACAG [G5U U14A], the self-cleavage was 1.24. Turning to ACCGGAUGUGCUUUCCGUUCAGAUGAGUCCGUGAGGACGAAACAG [G18U U21A], the self-cleavage came to 0.381. ACCGGAAGUGCUUCCCGGUCUGAUGAGUCCGUGAGGACGAAACAG [U7A U14C]: the self-cleavage came to 1.17. Take ACCGGAUGUGCUUUACGGUCUGAUGGGUCCGUGAGGACGAAACAG [C15A A26G]: the self-cleavage turned out to be 0.248. As for ACCGGAUGUACUUUCCGGUCUGAUGAGUCCUUGAGGACGAAACAG [G10A G31U], the self-cleavage was 0.938. As to AUCGGAUGUGCUUUCCGGUCUGAUGAGUCCGCGAGGACGAAACAG [C2U U32C], the self-cleavage was 0.971.

For ACCGGAUGUGCUUUCCGGUCUGAUGAGUCCGUGAGGUCGUAACAG [A37U A40U], the self-cleavage was found to be 0.303. Consider ACCCGAUGUGCUUCCCGGUCUGAUGAGUCCGUGAGGACGAAACAG [G4C U14C], for which the self-cleavage was 0.475.

Regarding ACCGGAUGUGCUUGCCGGUCUGAUGAUUCCGUGAGGACGAAACAG [U14G G27U], the self-cleavage worked out at 0.515. As for ACCGGAUGUGCUAUCCGGUCUGAUGAGACCGUGAGGACGAAACAG [U13A U28A], the self-cleavage came out at 1.1. Take ACCGGAUGUGCUUUCCGGUCUGAUGAGUCCUAGAGGACGAAACAG [G31U U32A]: the self-cleavage is 0.802. As for ACCAGAUGUGCUUUCCGGUCUGAUGAGUCCGUGGGGACGAAACAG [G4A A34G], the self-cleavage came out at 0.378. Take ACCGGAUGUGCUUUCCGGUCCGAUCAGUCCGUGAGGACGAAACAG [U21C G25C]: the self-cleavage was 0.308. As to ACCGGAUGUGCUUUCCGGUCUGAUGAGGCCGUGAGGACGAAACUG [U28G A44U], the self-cleavage is 0.397. For the variant ACCGGAUGUGCUUUCCGGUCUGGUGAGUCCGGGAGGACGAAACAG [A23G U32G], the self-cleavage turned out to be 0.366. In the case of ACCGGAUGUGCUUUCUGGUCUGAGGAGUCCGUGAGGACGAAACAG [C16U U24G] it was 1.16.

As to AUUGGAUGUGCUUUCCGGUCUGAUGAGUCCGUGAGGACGAAACAG [C2U C3U], the self-cleavage worked out at 0.588. As for ACCGGAUGUGCUUUUCGGUCUGAUGAGUCCGUGAGCACGAAACAG [C15U G36C], the self-cleavage turned out to be 0.356. For ACCGGAUGUGCAUUCCGGUCUGAUGAGUCCGUGAGGACGCAACAG [U12A A40C], the self-cleavage came to 0.556. Consider ACCGGAUGUGCUCUCCGGUCUGAUGAGUCCGUGAGUACGAAACAG [U13C G36U], for which the self-cleavage amounted to 0.598. As to ACCGGAUUUGCUUUCCGGACUGAUGAGUCCGUGAGGACGAAACAG [G8U U19A], the self-cleavage amounted to 0.398. Consider ACCGGAUGUCCUUUCCGGUCUGAUGAGUCUGUGAGGACGAAACAG [G10C C30U], for which the self-cleavage is 1.28. In the case of ACCGGAUGUGCUUUCGGGUCUGAUGAGUCCGUGAGGACGAAACGG [C16G A44G], the self-cleavage amounted to 1.18. Turning to ACCGGACGUGCUUUCCGGUCUGAUGGGUCCGUGAGGACGAAACAG [U7C A26G], the self-cleavage is 0.305. In the case of ACCGGAUGUGCUUUCCGGUCUGAGGAGUCCGUGAGGACGAUACAG [U24G A41U] it was 0.323; in that of ACCGGAUAUGCUUUCCGGUCUGAUGAGUCAGUGAGGACGAAACAG [G8A C30A], 0.929; in that of ACCGGAUGUGCUUUCCGGUCUAAUGAGUCCGUUAGGACGAAACAG [G22A G33U], 0.3. ACCGGAUGUGCUUUCCGGUCUGAUGUGUCCUUGAGGACGAAACAG [A26U G31U]: the self-cleavage is 0.748. As to ACGGGAUGUACUUUCCGGUCUGAUGAGUCCGUGAGGACGAAACAG [C3G G10A], the self-cleavage is 0.771.

Take ACCGGAUGUGCUUUCCGGUCUGGUGAGUCCGUGGGGACGAAACAG [A23G A34G]: the self-cleavage stood at 0.35. On to ACCGGAUGUGCUUUCCGGUCUAAUGAGUCCGCGAGGACGAAACAG [G22A U32C], for which the self-cleavage was determined as 0.29.

Consider ACCGGAUGUGCUUUCCGGUCCGAUGAGGCCGUGAGGACGAAACAG [U21C U28G], for which the self-cleavage amounted to 0.703. On to ACCGGAUGUACUUUCCGGUCUGAUGAUUCCGUGAGGACGAAACAG [G10A G27U], for which the self-cleavage amounted to 0.431. Take ACCGGAUGUGCUUUACGGUCUGUUGAGUCCGUGAGGACGAAACAG [C15A A23U]: the self-cleavage came to 0.276.

In the case of ACCGGAUGUGCUCUCCGGUCUGAUGAGUCCGUGAGGACGAAACCG [U13C A44C], the self-cleavage came to 0.491. The figure for ACCGGAUGUGCGUUCCGGUCUGAUGAGUCCGUGAGGCCGAAACAG [U12G A37C] is 0.88. ACCGGAUGUGCUUUCCGGUCUGAUGAGUCCGUGAGGACUGAACAG [G39U A40G]: the self-cleavage stood at 0.361. ACCGGAUGUGCUUUCCGGUCUGAUGUGUCCGUGAGGACGGAACAG [A26U A40G]: the self-cleavage came to 0.344. With ACCGCAUGUGCUGUCCGGUCUGAUGAGUCCGUGAGGACGAAACAG [G5C U13G], the self-cleavage was determined as 0.85. Take ACCGGAUCUGCUUUCCGGUUUGAUGAGUCCGUGAGGACGAAACAG [G8C C20U]: the self-cleavage is 0.433. Regarding ACCGGAUGUGCUUUCCUGUCUGAGGAGUCCGUGAGGACGAAACAG [G17U U24G], the self-cleavage came to 0.704. In the case of ACCGGAUGUGCUUUCCGGUCUAAUGAGUCCGUGAGGACGAAACUG [G22A A44U] it was 0.314; in that of ACCGGAUGUGCUUUCCGGUCUGAUGAGUCCGUGAGGACAAAACGG [G39A A44G], 0.718; in that of ACCGGAUGUGCUUUCCGGUCUGAUGAGUCCGUGAGUACGAAACAC [G36U G45C], 0.454. ACCGGAUGUGCUUUCCGGUCUGAUGAGGCCGUUAGGACGAAACAG [U28G G33U]: the self-cleavage stood at 0.972. ACCGGAUGUGCUUUCCGGUCUGAUGAGUCCCUGAGGACGAAACGG [G31C A44G]: the self-cleavage is 1.53.

Take ACCGGAUGUGCUUUCCGGUCUGAUUAGUCCAUGAGGACGAAACAG [G25U G31A]: the self-cleavage turned out to be 0.338.
